The subject of test [1] is A431, IGR-1, IGR-39 and A2058. The test can be described thus: XTT cell viability assay, controls on all cell lines. It is filed as cell-based, human. As to conditions: for cell viability (XTT), controls: all cell lines, treated with NIR-light. The protocol: (§1) The human skin epidermoid carcinoma cell line A431 (ATCC: CRL-259), human embryonic kidney (HEK-293T) cell line (ATCC: CRL-11268) and the human melanoma cell line A2058 (ATCC: CRL-11147) were cultured in RPMI-1640 medium. The human melanoma cell line IGR-39 (DSMZ: ACC 239) and IGR-1 (DSMZ: ACC-236) were cultured in DEME medium. All media were supplemented with 2 mM L-glutamine, 10% (v/v) fetal bovine serum (FBS) and 100 U/mL penicillin-streptomycin; the cells were incubated at 37° C. in a 5% CO2 atm. All media and additives were purchased from Life Technologies, Darmstadt, Germany.
(§2) In addition to the in vitro imaging specificity, the phototoxic activity of scFv-SNAP-IR700 and free IR700 were also investigated using cell proliferation and cell apoptosis assays as described previously (9). Briefly, 2×10^4 cells were seeded in 96-well plates and incubated overnight at 37° C. The cells were treated with different concentrations (0, 12.5, 25, 50, 100, 200 and 400) nM of scFv-425-SNAP, IR700 or equivalent concentration of scFv-SNAP-425-IR700 for 3 h at 37° C. in the dark. Toxic control cultures were incubated with 500 μg/mL zeocin instead of the photosensitizer.
Before light irradiation, cells were washed three times with PBS and fresh phenol red free culture media were added to the cells. Light treatment was performed with a Hydrosun® Typ 750 radiator with a water-containing cuvette and an orange filter OG590, with 140 mW/cm^2, dose: 25 J/cm^2a VIS, 76 J/cm^2 wIRA, exposure time: 15 min, and a spectrum in the range of 580-1400 nm (Hydrosun Medizintechnik GmbH, Mülhelm, Germany). […]
(§3) Cell viability was measured using the cell proliferation kit II (XTT®) (Roche, Mannheim Germany) according to the manufacturer's instructions. […] Cell viability was determined colorimetrically by monitoring the reduction of XTT® to formazan at 450 nm absorbance wavelength and 630 nm reference wavelength using the ELx808 absorbance micro-plate reader (BioTek Instruments GmbH, Bad Friedrichshall, Germany).
In general terms: Tetrazolium dyes change colour on reduction, which living cells bring about.

Test [2] relates to A431, IGR-1, IGR-39 and A2058. The test can be described thus: Apo-ONE Caspase-3/7 apoptosis assay, controls. The format is cell-based, human. As to conditions: photosensitizer or fusion protein alone. The protocol: as §2
(§4) Before light irradiation, cells were washed three times with PBS and fresh phenol red free culture media were added to the cells. […]
(§5) Next it was determined whether scFv-SNAP-IR700 has the ability to induce apoptosis using the Apo-ONE® Homogeneous Caspase-3/7 assay (Promega, Mannheim, Germany). […] The activities of caspase-3 and -7 enzymes were analyzed in cell lysates by measuring the fluorescence signal at 485 nm excitation wavelength and 535 nm emission wavelength using the ELISA plate reader ELx808 (Bio-TEK, Bad Friedrichschall, Germany).

Test [3] concerns EGFR^+ skin carcinoma cell lines (A431, IGR1 and IGR-39). The test can be described thus: Flow cytometry binding analysis. Also noted: species or system human. As to conditions: EGFR+ skin cancer cells; 30 min on ice. The protocol:
Flow cytometry analysis was performed to determine the binding properties of labeled scFv-SNAP-tag fusion protein against skin cancer cell lines. Approximately 4×10^5 cells each of the EGFR-positive skin cancer cell lines IGR-39, IGR-1 and A431 as well as of the EGFR low expressing cell line A2058 were incubated with 0.5 μg of labeled proteins for 30 min on ice. After washing the cells twice with 1.8 mL of PBS in a conventional cell washer, fluorescence signals were detected using a FACSCalibur® device and CellQuest® software (Becton & Dickinson, Heidelberg, Germany) using a 633 nm laser source.
For orientation: Flow cytometry measures light scatter and fluorescence of single cells or particles in a stream.

Test [4] has as its system EGFR low expressing cell line (A2058). The test can be described thus: Confocal microscopy binding and internalization. It is filed as cell-based, human. The following applies: same conditions. The protocol:
(§6) To further monitor the targeted activity of fusion protein, Opera® High Content Screening System (PerkinElmer, Rodgau, Germany) was used to determine the binding and internalization properties of labeled fusion proteins on skin cancer cells. Cells were prepared as described for flow cytometry analysis. Binding activity was analyzed by incubating the cells with labeled fusion proteins for 30 min on ice, while receptor mediate internalization activities was monitored by incubating the cells with the labeled fusion proteins for 2 h at 37° C.

The subject of test [5] is EGFR-expressing cell lines (A431, IGR1 and IGR-39). In words: Confocal microscopy binding and internalization. It is filed as cell-based, human. Here is the method:
as §6

For test [6], the system named is A2058 cells (EGFR low expressing). The test can be described thus: XTT cell viability assay after light treatment. It is filed as cell-based, human. As to conditions: same protocol with light, up to 400 nM. The protocol:
as §1
(§7) In addition to the in vitro imaging specificity, the phototoxic activity of scFv-SNAP-IR700 and free IR700 were also investigated using cell proliferation and cell apoptosis assays as described previously (9). Briefly, 2×10^4 cells were seeded in 96-well plates and incubated overnight at 37° C. […]
as §3

In test [7] the test system is EGFR-expressing skin cancer cell lines (A431, IGR-1, IGR-39). In words: XTT cell viability assay, EGFR-expressing lines together. It is filed as cell-based, human. The following applies: with light 580-1400 nm; 0-400 nM. The protocol: as §1, §7, §3
For test [8], the system named is EGFR low expressing cells (A2058). The test can be described thus: Apo-ONE Caspase-3/7 apoptosis assay. It is filed as cell-based, human. As to conditions: same conditions. Here is the method: as §2, §4, §5
For test [9], the system named is cells expressing EGFR (A431, IGR-1, IGR-39). In words: Apo-ONE Caspase-3/7 apoptosis assay. The format is cell-based, human. The following applies: all cells expressing EGFR; with light. The protocol: as §2, §4, §5

Take “scFv-425-SNAP-tag: unlabeled fusion protein of anti-EGFR scFv-425 (SEQ ID No. 1) and SNAP-tag (SEQ ID No. 2)”: in [1], the “cell viability (XTT), controls” value is on record as “unaffected”. Moreover, the “caspase activities, controls” value in [2] is recorded as “no significant elevation of caspase activities”.
For the molecule `C[Si](C)(CCC[N+](CCCS(=O)(=O)[O-])(CCCS(=O)(=O)[O-])CCCS(=O)(=O)[O-])O[Si]1(O[Si](C)(C)CCC[N+](CCCS(=O)(=O)[O-])(CCCS(=O)(=O)[O-])CCCS(=O)(=O)[O-])n2c3c4ccccc4c2N=C2N=C(N=c4c5ccccc5c(n41)=NC1=NC(=N3)c3ccccc31)c1cccc(OCCCOC(=O)NCCCCCC(=O)ON3C(=O)CCC3=O)c12.[Na+].[Na+].[Na+].[Na+]` (stereo not shown) [IR700, IRDye®700DX N-hydroxysuccinimide ester, reference compound], the “cell viability (XTT), controls” value in test [1] was “unaffected”. The “caspase activities, controls” value in test [2] was “no significant elevation of caspase activities”.

B1: scFv-425-SNAP-647: scFv-425-SNAP-tag fusion protein conjugated with BG-Alexa-647 dye, used for flow cytometry and confocal microscopy (conjugate)
scFv: MAQVQLQQSGAELVKPGASVKLSCKASGYTFTSHWMHWVKQRAGQGLEWIGEFNPSNGRTNYNEKFKSKATLTVDKSSSTAYMQLSSLTSEDSAVYYCASRDYDYDGRYFDYWGQGTTVTVSSGGGGSGGGGSGGGGSDIELTQSPAIMSASPGEKVTMTCSASSSVTYMYWYQQKPGSSPRLLIYDTSNLASGVPVRFSGSGSGTSYSLTISRMEAEDAATYYCQQWSSHIFTFGSGTELEIKRMDKDCEMKRTTLDSPLGKLELSGCEQGLHEIKLLGKGTSAADAVEVPAPAAVLGGPEPLMQATAWLNAYFHQPEAIEEFPVPALHHPVFQQESFTRQVLWKLLKVVKFGEVISYQQLAALAGNPAATAAVKTALSGNPVPILIPCHRVVSSSGAVGGYEGGLAVKEWLLAHEGHRLGKP
modifications: left off: small tags and cut ends
B1: the “labeling of cells (flow cytometry)” value in [3] was “rapid and efficient labeling”. Further, the “binding/internalization signal (confocal)” value in test [4] is reported as “no signal was detected”. Besides, in [5] (30 min incubation at 4° C.), the “binding, cell membrane staining (confocal)” value is “homogeneous cell membrane staining”. In addition, in test [5] (max. 2 h of incubation at 37° C.), the “internalization (confocal)” value is given as “exclusively taken up”.

B2: scFv-425-SNAP-IR700: IR700 photosensitizer (via BG-PEG24 linker) conjugated to anti-EGFR single-chain variable fragment scFv-425 fused to SNAP-tag (conjugate)
scFv: B1 scFv
modifications: left off: small tags and cut ends
notes: IR700 photosensitizer (via BG-PEG24 linker) conjugated to anti-EGFR single-chain variable fragment scFv-425 fused to SNAP-tag
As for B2, the “cell viability (XTT)” value in [6] is reported as “no significant reduction in cell viability”. Besides, the “viability of EGFR+ cells (XTT)” value in test [7] was “reduced significantly in a concentration-dependent manner”. Also, the “cell viability (XTT) without light” value in test [1] (without any light treatment) was “no toxic effects”. Also, the results for the “caspase-3 and caspase-7 activities (apoptosis)” value in test [8] and in test [9] were “did not have a negative impact” and “triggers apoptosis”, respectively.
